{"source": "patent US20130089872A1", "about": "(LIVTECH, published 2013)", "key": {"Table 9 peptide No. 14": {"target": "Table 9 peptide No. 14", "assay": "PEPSCAN/CLIPS peptide ELISA, antibody 1 ug/mL"}, "Table 9 peptide No. 26": {"target": "T1, Table 9 peptide No. 26", "T1 construct": "CLIPS format (inferred); native Cys replaced by Ala as printed", "T1 peptide": "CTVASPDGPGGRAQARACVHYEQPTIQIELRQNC", "assay": "PEPSCAN/CLIPS peptide ELISA, antibody 1 ug/mL", "protocol": "5034 types of the synthesized peptides were covalently bound to PEPSCAN cards (455 peptides/card), and the binding of the synthesized peptides to antibodies was then analyzed by the ELISA method. […] After washing, the resultant was allowed to react with a 1000-fold diluted peroxidase-secondary antibody complex at 25° C. for 1 hour. After washing, a substrate solution (a solution containing 2,2′-azino-di-3-ethylbenzthiazoline sulfonate (ABTS) and 2 μL of 3% hydrogen peroxide solution) was added to the reaction solution, followed by a chromogenic reaction for 1 hour. The binding activity of the antibodies was quantified by photographing with a CCD camera and then performing an image analysis."}, "[1]": {"target": "T2, hmTROP-2-C chimeric protein (human; mouse, UniProt Q8BGV3 140-317)", "T2 construct": "range 140-C-terminus; constitutively expressed on HEK293 cells; signal peptide 1-26 of hTROP-2 left out; also called human/mouse chimeric TROP-2-C; not shown: C-terminal myc/His tag from the vector", "T2 sequence": "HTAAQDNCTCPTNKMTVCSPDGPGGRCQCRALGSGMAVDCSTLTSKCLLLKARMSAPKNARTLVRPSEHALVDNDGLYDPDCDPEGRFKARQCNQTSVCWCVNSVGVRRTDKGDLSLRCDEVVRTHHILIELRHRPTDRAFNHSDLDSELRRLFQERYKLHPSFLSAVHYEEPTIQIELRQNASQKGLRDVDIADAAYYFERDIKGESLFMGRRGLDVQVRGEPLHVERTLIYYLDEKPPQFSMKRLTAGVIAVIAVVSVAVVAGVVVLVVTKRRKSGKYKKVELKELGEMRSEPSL", "assay": "FACS on HEK293 cells constantly expressing hmTROP-2-C"}, "[2]": {"target": "T3, hmTROP-2-A chimeric protein (human; mouse, UniProt Q8BGV3 64-317)", "T3 construct": "range 64-C-terminus; transiently expressed on HEK293 cells; also called human/mouse TROP-2-A; not shown: C-terminal myc/His tag from the vector", "T3 sequence": "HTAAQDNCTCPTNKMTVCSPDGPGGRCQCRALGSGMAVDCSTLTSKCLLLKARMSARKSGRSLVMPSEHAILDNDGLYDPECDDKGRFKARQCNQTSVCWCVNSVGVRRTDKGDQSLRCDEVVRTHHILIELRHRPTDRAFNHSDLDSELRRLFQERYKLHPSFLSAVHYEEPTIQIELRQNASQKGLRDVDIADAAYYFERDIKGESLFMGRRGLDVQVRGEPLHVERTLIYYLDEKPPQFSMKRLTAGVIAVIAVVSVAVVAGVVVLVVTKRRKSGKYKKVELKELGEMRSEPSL", "assay": "FACS on HEK293 cells transiently expressing hmTROP-2-A"}, "mouse TROP-2 protein": {"target": "T4, mouse TROP-2 protein (mouse, UniProt Q8BGV3 25-317)", "T4 construct": "whole, on cells", "T4 sequence (looked up)": "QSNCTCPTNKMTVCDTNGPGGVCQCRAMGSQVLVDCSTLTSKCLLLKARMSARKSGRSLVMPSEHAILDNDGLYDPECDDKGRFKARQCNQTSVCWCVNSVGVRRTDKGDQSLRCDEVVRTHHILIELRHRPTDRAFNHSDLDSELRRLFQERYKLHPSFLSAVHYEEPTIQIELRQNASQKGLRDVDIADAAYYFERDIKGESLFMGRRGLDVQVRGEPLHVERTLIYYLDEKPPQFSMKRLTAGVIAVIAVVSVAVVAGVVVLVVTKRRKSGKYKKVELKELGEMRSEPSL", "assay": "FACS on CHO-K1 cells transiently expressing mouse TROP-2", "source_text": "(§1) Specifically, each of an expression vector (mouse TROP-2-pcDNA3.1(+), furnished by the Institute of Molecular and Cellular Biosciences, the University of Tokyo) comprising the full-length cDNA of a mouse TROP-2 gene (GenBank accession No. NM_{—}020047, Y08830), and an expression vector (pcDNA3.1-hEpCAM-myc/His) comprising the full-length cDNA of a human TROP-1/EpCAM gene (GenBank accession No. NM_{—}002354), was transiently introduced into CHO-K1 cells, using Lipofectamine2000 reagent (Invitrogen). Thereafter, 24 to 48 hours later, the cells were removed from a culture dish by treating them with trypsin, and a cell suspension was then prepared. The thus prepared cell suspension was successively reacted with the produced anti-hTROP-2 monoclonal antibody (0.1 μg) and with PE-labeled anti-mouse IgG, and it was then analyzed by FACSCalibur."}, "[3]": {"target": "T5, human TROP-2 (hTROP-2) protein (human, UniProt P09758 27-323)", "T5 construct": "also called Tacstd2; GA733-1", "T5 sequence": "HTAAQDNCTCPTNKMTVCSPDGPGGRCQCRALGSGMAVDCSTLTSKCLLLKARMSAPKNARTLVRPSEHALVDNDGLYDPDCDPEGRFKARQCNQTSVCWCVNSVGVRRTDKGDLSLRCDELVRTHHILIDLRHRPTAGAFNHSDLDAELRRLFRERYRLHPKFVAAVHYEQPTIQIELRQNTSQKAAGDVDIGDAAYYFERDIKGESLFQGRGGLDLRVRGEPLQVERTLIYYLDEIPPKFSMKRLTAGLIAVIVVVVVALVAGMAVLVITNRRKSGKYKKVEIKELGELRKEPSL", "assay": "FACS on PK-59 cells (endogenous hTROP-2), 0.1 ug antibody", "protocol": "(§2) Cancer cells were removed from a culture dish by a trypsin treatment, and a cell suspension was then prepared (cell density: 2×10⁶ cells/mL). An anti-hTROP-2 monoclonal antibody (0.1 μg) was added to 100 μL of the cell suspension, and they were then reacted at 4° C. for 20 minutes. The reaction solution was washed with PBS, and it was then reacted with PE-labeled anti-mouse IgG (BD Biosciences Pharmingen) (0.1 μg) (at 4° C. for 30 minutes). Thereafter, the resultant was analyzed by FACSCalibur (Becton, Dickinson and Company)."}, "[4]": {"target": "T5, human TROP-2 (hTROP-2) protein", "assay": "FACS on BxPC-3 cells (endogenous hTROP-2), 0.1 ug antibody", "protocol": "as §2"}, "[5]": {"target": "T6, human TROP-1/EpCAM protein (human, UniProt P16422 24-314)", "T6 construct": "whole, on cells; vector adds a C-terminal myc/His tag; also called human EpCAM/TROP-1; hEpCAM", "T6 sequence (looked up)": "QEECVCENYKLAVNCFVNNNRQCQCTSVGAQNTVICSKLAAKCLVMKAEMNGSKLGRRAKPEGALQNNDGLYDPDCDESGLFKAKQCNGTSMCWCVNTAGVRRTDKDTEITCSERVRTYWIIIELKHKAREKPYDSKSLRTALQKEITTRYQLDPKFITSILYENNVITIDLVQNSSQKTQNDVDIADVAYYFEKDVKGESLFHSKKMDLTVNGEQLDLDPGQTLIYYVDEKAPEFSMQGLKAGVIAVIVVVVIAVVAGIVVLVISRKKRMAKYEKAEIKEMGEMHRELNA", "assay": "FACS on CHO-K1 cells transiently expressing human EpCAM/TROP-1", "source_text": "as §1"}, "[6]": {"target": "T7, recombinant protein of the extracellular region of hTROP-2 (human, UniProt P09758 27-263)", "T7 construct": "made with baculovirus, purified on Ni Sepharose; also called purified recombinant hTROP-2 protein; hTROP-2 EC; not shown: C-terminal myc/His tag from the pcDNA4/myc-His A vector", "T7 sequence": "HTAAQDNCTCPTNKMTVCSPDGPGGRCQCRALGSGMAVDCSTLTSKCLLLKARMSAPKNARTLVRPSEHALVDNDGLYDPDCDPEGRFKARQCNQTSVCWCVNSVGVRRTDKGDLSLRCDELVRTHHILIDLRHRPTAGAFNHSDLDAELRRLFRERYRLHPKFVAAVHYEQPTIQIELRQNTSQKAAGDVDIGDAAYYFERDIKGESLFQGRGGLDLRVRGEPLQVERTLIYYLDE", "assay": "equilibrium competition ELISA (Djavadi-Ohaniance method), recombinant hTROP-2", "protocol": "The antigen binding affinity (Kd value) of the generated anti-hTROP-2 monoclonal antibody was calculated by a method using ELISA (Djavadi-Ohaniance L. et al (1996), In Antibody Engineering, Chapter 4, pp. 77-97. IRL Press, Oxford).\nSpecifically, the purified recombinant hTROP-2 protein (0.1 μg/mL) was added to a 96-well culture plate (Corning) so that the antigen was solid-phased (at room temperature for 1 hour, or at 4° C. overnight). Subsequently, the resultant was washed with PBS three times, and 2% skim milk (PBS solution) was then added thereto to block it (at room temperature for 1 hour). The resultant was washed with PBS twice. […] The reaction product was washed with PBS three times, and it was then reacted with HRP-labeled anti-mouse IgG (final concentration: 1 μg/mL) (GE Healthcare Biosciences) diluted with a blocking solution (at room temperature for 1 hour). Subsequently, the reaction product was washed with a 0.1% Tween20-PBS solution three times, and a TMB (3,3′,5,5′-tetramethylbenzidine: SIGMA) substrate solution was then added to the resultant to carry out a color reaction. Then, 1 M sulfuric acid was added to the reaction product to terminate the reaction. Using Microplate reader Model 550 (BIO RAD), absorbance was measured."}, "Table 7 peptide No. 16": {"target": "Table 7 peptide No. 16", "assay": "PEPSCAN/CLIPS peptide ELISA, antibody 1 ug/mL"}, "Table 7 peptide No. 19": {"target": "Table 7 peptide No. 19", "assay": "PEPSCAN/CLIPS peptide ELISA, antibody 1 ug/mL"}}, "data": [{"binder": "anti-hTROP-2 monoclonal antibody clone K5-116-2-1 (antibody, V domains shown, mouse IgG; also called hybridoma FERM BP-11253) VH: QVQLQQPGAELVRPGASVKLSCKASGYTFTSYWITWVKQRPGQGLEWIGNIYPSDSYTNYNQKFRDKATLTVDKSSSTAYMQLSSPTSEDSAVYYCSALFDYWGQGTTLTVSS VL: DILLTQSPAILSVSPGERVSFSCRASQSIGTSIHWYQQRTNGSPRLLIKYASESISGIPSRFSGSGSGTDFILSINSVESEDIADYYCQQSNSWPFTFGSGTKLEIK", "values": [{"measurement": "binding (PEPSCAN ELISA signal)", "setting": "Table 9 peptide No. 14", "value": 1440}, {"measurement": "binding (PEPSCAN ELISA signal)", "setting": "Table 9 peptide No. 26", "value": 1220}, {"measurement": "binding result", "setting": "[1]", "value": "binds"}, {"measurement": "binding result", "setting": "[2]", "value": "binds"}, {"measurement": "binding result", "setting": "mouse TROP-2 protein", "value": "no binding (tested: 0.1 ug)"}, {"measurement": "mean fluorescence intensity relative to secondary antibody only", "setting": "[3]", "value": 122, "unit": "times"}, {"measurement": "mean fluorescence intensity relative to secondary antibody only", "setting": "[4]", "value": 121, "unit": "times"}, {"measurement": "binding result", "setting": "[5]", "value": "no binding (tested: 0.1 ug)"}, {"measurement": "Kd", "setting": "[6]", "value": 26.9, "unit": "pM"}]}, {"binder": "anti-hTROP-2 monoclonal antibody clone K5-107 (antibody, V domains shown, mouse IgG1 purified from hybridoma ascites; also called hybridoma FERM BP-11252) VH: QVQLQQPGSELVRPGASVKLSCKASGYTFTSYWMHWVKQRHGQGLEWIGNIYPGGGYTNYDEKFKSKGTLTVDTSSSTAYMHLSSLTSEDSAVYYCTRSSVFDYWGQGTTLTVSS VL: DILLTQSPAILSVSPGERVSFSCRASQNIGTSIHWFQQRTNGSPRLLIKYASESISGIPSRFSGSGSGTDFTLSINSVESEDIADYYCQQSNSWPFTFGSGTKLEIK", "values": [{"measurement": "binding result", "setting": "mouse TROP-2 protein", "value": "no binding (tested: 0.1 ug)"}, {"measurement": "binding result", "setting": "[5]", "value": "no binding (tested: 0.1 ug)"}]}, {"binder": "anti-hTROP-2 monoclonal antibody clone K5-70 (antibody, V domains shown, mouse IgG2a purified from hybridoma ascites; also called K-70; hybridoma FERM BP-11251) VH: QVQLQQPGAELVRPGASVKLSCKASGYTFTIYWINWVKQRPGQGLEWIGNIYPSDSYTNYNQKFKDKATLTVDKSSSTAYMQLSSPTSEDSAVYYCTRTSMADYWGQGTTLTVSS VL: DILLTQSPAILSVSPGERVSFSCRASQSIGTSIHWYQQRTNGSPRLLIKYASESISGIPSRFSGSGSGTDFTLSINSVESEDIADYYCQQSNSWPFTFGSGTKLEIK", "values": [{"measurement": "binding (PEPSCAN ELISA signal)", "setting": "Table 7 peptide No. 16", "value": 538}, {"measurement": "binding (PEPSCAN ELISA signal)", "setting": "Table 7 peptide No. 19", "value": 519}, {"measurement": "binding result", "setting": "[1]", "value": "binds"}, {"measurement": "binding result", "setting": "[2]", "value": "binds"}, {"measurement": "binding result", "setting": "mouse TROP-2 protein", "value": "no binding (tested: 0.1 ug)"}, {"measurement": "binding result", "setting": "[5]", "value": "no binding (tested: 0.1 ug)"}, {"measurement": "Kd", "setting": "[6]", "value": 6.8, "unit": "pM"}]}, {"binder": "anti-hTROP-2 monoclonal antibody clone T6-16 (antibody, V domains shown, mouse IgG2a purified from hybridoma ascites; also called 16-16; hybridoma FERM BP-11346) VH: EVQLQQSGPELVKPGASVKISCKASGYTFTDYNMHWVKQSHGKNLEWIGYIYPYNGGTGYNQRFKSRATMTVDKSSSTAYMELRSLTSDDSAVYYCAREDYGSSPSYAMDYWGQGTSVIVSS VL: DVVMTQTPLSLPVSLGDQASISCRSSQSLVHGNGNTYLHWYLQKPGQSPKLLIYKVSNRFSGVPDRFSGSGSGTDFTLKISRVEAEDLGVYFCSQTTHVPTFGSGTKLEIK", "values": [{"measurement": "binding result", "setting": "[1]", "value": "no binding"}, {"measurement": "binding result", "setting": "mouse TROP-2 protein", "value": "no binding (tested: 0.1 ug)"}, {"measurement": "binding result", "setting": "[5]", "value": "no binding (tested: 0.1 ug)"}, {"measurement": "Kd", "setting": "[6]", "value": 4.3, "unit": "pM"}]}]}
